From patent US20060134087A1, “ITI-D1 Kunitz domain mutants as hNE inhibitors” (Dyax Corp., published 2006)

Key:
[1] = biological target: T1, Human Neutrophil Elastase (human, UniProt P08246); assay: pH elution of display phage from hNE beads
[2] = biological target: T1, Human Neutrophil Elastase; assay: pH elution of display phage from hNE beads, extended protocol
Excerpt: (§1) Total pfu applied to the beads are in column two. The fractions of this input pfu recovered in each pH fraction of the abbreviated pH elution protocol (pH 7.0, pH 3.5, and pH 2.0) are in the next three columns. For data obtained using the extended pH elution protocol, the pH 3.5 listing represents the sum of the fractions of input recovered in the pH 6.0, pH 5.5, pH 5.0, pH 4.5, pH 4.0, and pH 3.5 elution samples. The pH 2.0 listing is the sum of the fractions of input obtained from the pH 3.0, pH 2.5, and pH 2.0 elution samples. The total fraction of input pfu obtained throughout the pH elution protocol is in the sixth column. The final column of the table lists the total fraction of input pfu recovered, normalized to the value obtained for MA-BITI-E7-141 phage.

[3] = biological target: T1, Human Neutrophil Elastase; assay: display phage on hNE beads, pH elution
Description: (§2) To test if ITI-D1E7-display phage bind hNE beads, pH elution profiles were measured. Aliquots of EpiNE-7, MA-ITI-D1, and MA-ITI-D1E7 display phage were incubated with hNE beads for three hours at room temperature (RT). The beads were washed and phage were eluted as described in U.S. Pat. No. 5,223,409, except that only three pH elutions were performed.

[4] = biological target: T1, Human Neutrophil Elastase; assay: abbreviated fractionation of display phage on hNE beads
Description: as §2

[5] = biological target: T1, Human Neutrophil Elastase; assay: display phage eluted from hNE beads, normalized to MA-EpiNE7 in a concurrent elution
[6] = biological target: T1, Human Neutrophil Elastase; assay: pH elution of display phage from hNE beads, abbreviated protocol
Excerpt: as §1

[7] = biological target: T1, Human Neutrophil Elastase; assay: display phage on hNE beads, extended pH fractionation
Excerpt: We characterized the binding properties to hNE-beads of MA-BITI and MA-BITI-E7 display phage using the extended pH fractionation procedure described in U.S. Pat. No. 5,223,409.

[8] = biological target: T1, Human Neutrophil Elastase; assay: estimated for the free domain from display phage binding to and elution from hNE beads
[9] = biological target: T1, Human Neutrophil Elastase; assay: enzyme inhibition assay
Description: (§3) Inhibition constants for the proteins reacting with hNE (Kᵢ) were determined using RT measurements of hydrolysis of a fluorogenic substrate (N-methoxysuccinyl-Ala-Ala-Pro-Val-7-amino-4-methylcoumarin, Sigma M-9771) by hNE. […] The reactions were incubated at RT for 30 minutes. At the end of the incubation period, the fluorogenic substrate was added at a concentration of 25 μM and the time course for increase in fluorescence at 470 nm (excitation at 380 nm) due to enzymatic substrate cleavage was recorded using a spectrofluorimeter (Perkin-Elmer 650-15) and strip chart recorder. […] Kᵢ is related to Kₐₚₚₐᵣₑₙₜ by Kᵢ=Kₐₚₚₐᵣₑₙₜ×(1/(1+(S₀/Kₘ))). The correction is small compared to the possible errors in Kₐₚₚₐᵣₑₙₜ. Rates of enzymatic substrate cleavage were determined from the linear slopes of the recorded increases in fluorescence.
(§4) We recorded data used to determine Kᵢ for EPI-HNE-2 and EPI-HNE-3 reacting with hNE. Data obtained as described above are recorded as percent residual activity plotted as a function of added inhibitor. […] From the data, Kᵢ values for EPI-HNE-2 and for EPI-HNE-3 reacting with hNE at RT were calculated to be 4.8 pM and 6.2 pM, respectively.

[10] = biological target: T1, Human Neutrophil Elastase; assay: calculated by the filing from koff = KD × kon
Excerpt: […] […] B. Specificity.

[11] = biological target: Human Pancreatic Chymotrypsin (human, UniProt P17538); assay: enzyme inhibition assay; said to be probably not specific
[12] = biological target: T1, Human Neutrophil Elastase; assay: progressive inhibition of hNE substrate hydrolysis after addition of inhibitor
Description: The kinetic on-rates for the inhibitors reacting with hNE (kₒₙ) were determined from measurements of progressive inhibition of substrate hydrolytic activity by hNE following addition of inhibitor. For these experiments, a known concentration of inhibitor was added to a solution of hNE (0.847 nM) and substrate (25 μM) in 2 ml of reaction buffer in a plastic fluorescence cuvette. The change in fluorescence was recorded continuously following addition of the inhibitor. […] The enzymatic rate at selected times following addition of the inhibitor was determined from the slope of the tangent to the fluorescence time course at that time.
The kinetic constant kₒₙ for EPI-HNE-2 reacting with hNE was determined as follows. EPI-HNE-2 at 1.3 nM was added to buffer containing 0.867 nM hNE (I:E=1.5:1) at time 0.

[13] = biological target: T1, Human Neutrophil Elastase; assay: hNE inhibition assay of EPI-HNE-3 stored in unbuffered water at 4° C. for five months
[14] = biological target: T1, Human Neutrophil Elastase; assay: inhibition of hNE hydrolysis of a fluorogenic substrate, [hNE] = 8.47 × 10^-10 molar
Description: as §3, §4

Human Serum Plasmin = Human Serum Plasmin (human, UniProt P00747); assay: enzyme inhibition assay; limit on the assumption of less than 10% inhibition at the highest concentration tested
Human Serum Kallikrein = Human Serum Kallikrein (human, UniProt P03952); assay: as above
Human Serum Thrombin = Human Serum Thrombin (human, UniProt P00734); assay: as above
Human Urine Urokinase = Human Urine Urokinase (human, UniProt P00749); assay: as above
Human Plasma Factor Xa = Human Plasma Factor Xa (human, UniProt P00742); assay: as above

Binder | fold reduction of binding against parental MA-BITI-E7-141 [1] | Fraction of Input recovered at pH2.0 [2] | Fraction of Input recovered at pH3.5 [2] | Fraction of Input recovered at pH7.0 [2] | Recovery Relative to BITI-E7-141 [2] | Recovery, Total fraction of input [2] | Fraction of Input recovered at pH2.0 [6] | Fraction of Input recovered at pH3.5 [6] | Fraction of Input recovered at pH7.0 [6] | Recovery Relative to BITI-E7-141 [6] | Recovery, Total fraction of input [6] | Ki [9] | koff [10] | Ki [11] | kon [12] | Kd [14] | Ki (Human Serum Plasmin) | Ki (Human Serum Kallikrein) | Ki (Human Serum Thrombin) | Ki (Human Urine Urokinase) | other results
AMINO1 display phage (designed binder) KEDFCQLGYSAGPCVAMFPRYFYNGTSMACETFQYGGCMGNGNNFVTEKDCLQTCRGA | ≥ 10 fold | 3.5e-05 fraction of input | 0.00023 fraction of input | 2.4e-05 fraction of input | 0.11 ratio | 0.00029 fraction of input | – | – | – | – | – | – | – | – | – | – | – | – | – | – | –
MA-ITI-D1E7 display phage (designed binder) KEDSCQLGYSAGPCVAMFPRYFYNGTSMACETFQYGGCMGNGNNFVTEKDCLQTCRGA | – | – | – | – | – | – | – | – | – | – | – | – | – | – | – | – | – | – | – | – | fold less total fraction eluted than EpiNE-7 display phage [3]: ~40 fold; fraction of input eluted at pH 3.5 [4]: 8e-05 fraction of input; fraction of input in Wash [4]: 2e-05 fraction of input; Normalized fraction of input (relative to recovered MA-EpiNE7) [5]: 0.027 ratio
AMINO2 display phage (designed binder) KPDSCQLGYSAGPCVAMFPRYFYNGTSMACETFQYGGCMGNGNNFVTEKDCLQTCRGA | ≥ 10 fold | – | – | – | – | – | 4.5e-05 fraction of input | 0.00021 fraction of input | 5.7e-05 fraction of input | 0.12 ratio | 0.00031 fraction of input | – | – | – | – | – | – | – | – | – | –
MA-BITI-E7-141 display phage (designed binder) RPDFCQLGYSAGPCVAMFPRYFYNGTSMACQTFVYGGCMGNGNNFVTEKDCLQTCRGA | – | 0.00032 fraction of input | 0.0021 fraction of input | 0.00021 fraction of input | 1 ratio | 0.0026 fraction of input | 0.00054 fraction of input | 0.0018 fraction of input | 0.00022 fraction of input | 1 ratio | 0.0026 fraction of input | – | – | – | – | – | – | – | – | – | fold increase in total fraction of input eluted, relative to parental MA-BITI-E7 [7]: 10 fold; Estimated KD [8]: < 10 pM
EPI-HNE-3 (designed binder) AACNLPIVRGPCIAFFPRWAFDAVKGKCVLFPYGGCQGNGNKFYSEKECREYCGVP | – | – | – | – | – | – | – | – | – | – | – | 6 pM | 5e-05 s⁻¹ | ~30 µM | 8e+06 M⁻¹ s⁻¹ | 6.2 pM | > 100 µM | > 100 µM | > 100 µM | > 100 µM | Ki [13]: ~0.012 nM; Ki (Human Plasma Factor Xa): > 100 µM
EPI-HNE-4 (designed binder) EACNLPIVRGPCIAFFPRWAFDAVKGKCVLFPYGGCQGNGNKFYSEKECREYCGVP | – | – | – | – | – | – | – | – | – | – | – | 5 pM | 4.9e-05 s⁻¹ | ~10 µM | 1.06e+07 M⁻¹ s⁻¹ | 4.6 pM | > 90 µM | > 90 µM | > 90 µM | > 90 µM | Ki (Human Plasma Factor Xa): > 90 µM
